Data: publication PMC9348906 (Science (New York, N.Y.), 2022)
Several values for one entry are separate records, joined by “and”; a condition that tells them apart may be missing. Identical values can stand only once. Like-named read-outs stand apart in the source and are kept apart here.

Key:
Assay in all cases: SEC-MALS
[1] = target: C. thermophilum coat nup complex (CNC) (C. thermophilum) (UniProt G0S2X1)
SEC-MALS [2] = target: the molecule itself
SEC-MALS [3] = target: the molecule itself; remark: listed apart in the source

Chain of C. thermophilum coat nup complex (CNC) (C. thermophilum) (G0S2X1 whole entry, looked up, one chain of several): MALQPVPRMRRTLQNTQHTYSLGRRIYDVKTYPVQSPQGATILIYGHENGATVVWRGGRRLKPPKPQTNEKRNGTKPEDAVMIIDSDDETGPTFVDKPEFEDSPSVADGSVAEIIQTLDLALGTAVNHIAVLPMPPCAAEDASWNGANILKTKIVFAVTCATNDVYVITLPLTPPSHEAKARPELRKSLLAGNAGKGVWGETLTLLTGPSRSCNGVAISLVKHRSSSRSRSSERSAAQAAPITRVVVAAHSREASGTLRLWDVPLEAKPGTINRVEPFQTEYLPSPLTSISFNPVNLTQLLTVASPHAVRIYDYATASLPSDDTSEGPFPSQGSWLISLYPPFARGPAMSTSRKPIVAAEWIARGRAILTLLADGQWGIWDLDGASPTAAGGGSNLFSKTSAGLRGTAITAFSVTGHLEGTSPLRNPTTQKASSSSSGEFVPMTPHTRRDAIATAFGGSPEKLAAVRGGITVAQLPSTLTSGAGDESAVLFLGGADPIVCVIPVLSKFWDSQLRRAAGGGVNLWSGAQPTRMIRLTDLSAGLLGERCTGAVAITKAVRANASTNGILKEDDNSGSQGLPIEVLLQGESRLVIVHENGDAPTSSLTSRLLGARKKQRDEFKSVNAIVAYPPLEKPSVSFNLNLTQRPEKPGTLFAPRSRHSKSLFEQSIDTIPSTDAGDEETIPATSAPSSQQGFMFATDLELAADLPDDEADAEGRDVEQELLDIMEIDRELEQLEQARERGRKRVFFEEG

For “C. thermophilum cytoplasmic filament nup complex (CFNC) (from UniProt G0S4F3 1-882; G0SBS8 1-1481; G0SBQ3 1-678; G0SAK3 1-993)”, which stoichiometry N [1] is on record?
The stoichiometry N was 2.

B1: NUP358^NTD (domain or fragment, human, UniProt P49792 1-752, looked up)
chain: MRRSKADVERYIASVQGSTPSPRQKSMKGFYFAKLYYEAKEYDLAKKYICTYINVQERDPKAHRFLGLLYELEENTDKAVECYRRSVELNPTQKDLVLKIAELLCKNDVTDGRAKYWLERAAKLFPGSPAIYKLKEQLLDCEGEDGWNKLFDLIQSELYVRPDDVHVNIRLVEVYRSTKRLKDAVAHCHEAERNIALRSSLEWNSCVVQTLKEYLESLQCLESDKSDWRATNTDLLLAYANLMLLTLSTRDVQESRELLQSFDSALQSVKSLGGNDELSATFLEMKGHFYMHAGSLLLKMGQHSSNVQWRALSELAALCYLIAFQVPRPKIKLIKGEAGQNLLEMMACDRLSQSGHMLLNLSRGKQDFLKEIVETFANKSGQSALYDALFSSQSPKDTSFLGSDDIGNIDVREPELEDLTRYDVGAIRAHNGSLQHLTWLGLQWNSLPALPGIRKWLKQLFHHLPHETSRLETNAPESICILDLEVFLLGVVYTSHLQLKEKCNSHHSSYQPLCLPLPVCKQLCTERQKSWWDAVCTLIHRKAVPGNVAKLRLLVQHEINTLRAQEKHGLQPALLVHWAECLQKTGSGLNSFYDQREYIGRSVHYWKKVLPLLKIIKKKNSIPEPIDPLFKHFHSVDIQASEIVEYEEDAHITFAILDAVNGNIEDAVTAFESIKSVVSYWNLALIFHRKAEDIENDALSPEEQEECKNYLRKTRDYLIKIIDDSDSNLSVVKKLPVPLESVKEMLNSVMQE
B1 was tested. Which “stoichiometry N” value (SEC-MALS [2]) did it give?
The value was 2.

B2: NUP358^1–832 (domain or fragment, human, UniProt P49792 1-832, looked up)
chain: MRRSKADVERYIASVQGSTPSPRQKSMKGFYFAKLYYEAKEYDLAKKYICTYINVQERDPKAHRFLGLLYELEENTDKAVECYRRSVELNPTQKDLVLKIAELLCKNDVTDGRAKYWLERAAKLFPGSPAIYKLKEQLLDCEGEDGWNKLFDLIQSELYVRPDDVHVNIRLVEVYRSTKRLKDAVAHCHEAERNIALRSSLEWNSCVVQTLKEYLESLQCLESDKSDWRATNTDLLLAYANLMLLTLSTRDVQESRELLQSFDSALQSVKSLGGNDELSATFLEMKGHFYMHAGSLLLKMGQHSSNVQWRALSELAALCYLIAFQVPRPKIKLIKGEAGQNLLEMMACDRLSQSGHMLLNLSRGKQDFLKEIVETFANKSGQSALYDALFSSQSPKDTSFLGSDDIGNIDVREPELEDLTRYDVGAIRAHNGSLQHLTWLGLQWNSLPALPGIRKWLKQLFHHLPHETSRLETNAPESICILDLEVFLLGVVYTSHLQLKEKCNSHHSSYQPLCLPLPVCKQLCTERQKSWWDAVCTLIHRKAVPGNVAKLRLLVQHEINTLRAQEKHGLQPALLVHWAECLQKTGSGLNSFYDQREYIGRSVHYWKKVLPLLKIIKKKNSIPEPIDPLFKHFHSVDIQASEIVEYEEDAHITFAILDAVNGNIEDAVTAFESIKSVVSYWNLALIFHRKAEDIENDALSPEEQEECKNYLRKTRDYLIKIIDDSDSNLSVVKKLPVPLESVKEMLNSVMQELEDYSEGGPLYKNGSLRNADSEIKHSTPSPTRYSLSPSKSYKYSPKTPPRWAEDQNSLLKMICQQVEAIKKEMQELKLNS
B2 was tested. Which “stoichiometry N” value (SEC-MALS [3]) did it give?
The value was 4 and 5.

B3: NUP358^OE (domain or fragment, human, UniProt P49792 802-832, looked up)
chain: RWAEDQNSLLKMICQQVEAIKKEMQELKLNS
For B3, which “stoichiometry N” value (SEC-MALS [3]) is on record?
Its value is 2 and 4.
